The values that follow come from patent publication US20060018907A1 (published 2006).

Experiment [1] has as its target human lymphotoxin (TNFβ) (human) (UniProt P01374). Nature of the experiment: cell-based or functional assay.
For experiment [2], the target named is human tumor necrosis factor-α (TNFα) (human, UniProt P01375 77-233). Nature of the experiment: cell-based or functional assay.
Sequence of human tumor necrosis factor-α (TNFα) (P01375 77-233): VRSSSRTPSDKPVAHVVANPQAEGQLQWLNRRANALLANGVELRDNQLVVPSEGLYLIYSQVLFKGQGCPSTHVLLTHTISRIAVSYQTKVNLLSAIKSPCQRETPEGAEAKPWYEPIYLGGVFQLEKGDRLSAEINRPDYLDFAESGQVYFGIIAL

Sequence of human lymphotoxin (TNFβ) (human) (P01374 35-205 limits assumed): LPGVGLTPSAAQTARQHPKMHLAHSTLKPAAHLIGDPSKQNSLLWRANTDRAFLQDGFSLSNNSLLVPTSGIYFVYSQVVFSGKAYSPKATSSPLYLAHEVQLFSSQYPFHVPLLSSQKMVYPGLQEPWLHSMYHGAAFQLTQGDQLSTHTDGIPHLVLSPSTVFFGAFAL

The molecule “p55-sf2 (p55 TNF receptor / IgG1 heavy chain single fusion with truncated light chain JCK) (from UniProt P19438) (Fc fusion)” had an amount needed for the same inhibition of TNFβ cytotoxicity, against p75P-sf2 (fold against p75P-sf2) in experiment [1] of 3.

B1: chimeric mouse/human IgG1 anti-platelet mAb (7E3) (antibody, INN chains, looked up, V domains shown)
VH: EVQLQQSGTVLARPGASVKMSCEASGYTFTNYWMHWVKQRPGQGLEWIGAIYPGNSDTSYIQKFKGKAKLTAVTSTTSVYMELSSLTNEDSAVYYCTLYDGYYVFAYWGQGTLVTVSA
VL: EIVLTQSPVTLSVTPGDSVSLSCRASRDISNNLHWFQQTSHESPRLLIKYASQSMSGIPSRFSGSGSGTDFTLSINSVETEDFGMYFCQQTNSWPYTFGGGTKLEIK
modifications: IgG1
In experiment [2], B1 registered an IL-6 secreted by FS-4 fibroblasts (ng/ml); 4 µg/ml antibody, 0.3 ng/ml TNF (no antibody: 1.36) of 1.6 ng/ml IL-6; an IL-6 secreted by FS-4 fibroblasts (ng/ml); 4 µg/ml antibody, 1.5 ng/ml TNF (no antibody: 2.00) of 1.96 ng/ml IL-6; an IL-6 secreted by FS-4 fibroblasts (ng/ml); 4 µg/ml antibody, 7.5 ng/ml TNF (no antibody: 2.56) of 2.16 ng/ml IL-6.

B2: p75-sf2 (complete extracellular domain of p75 fused to the IgG1 heavy chain, with truncated light chain) (Fc fusion)
chain: QLPAQVAFTPYAPEPGSTCRLREYYDQTAQMCCSKCSPGQHAKVFCTKTSDTVCDSCEDSTYTQLWNWVPECLSCGSRCSSDQVETQACTREQNRICTCRPGWYCALSKQEGCRLCAPLRKCRPGFGVARPGTETSDVVCKPCAPGTFSNTTSSTDICRPHQICNVVAIPGNASMDAVCTSTSPTRSMAPGAVHLPQPVSTRSQHTQPTPEPSTAPSTSFLLPMGPSPPAEGSTGDGTLVTVSS
Turning to B2, the “amount needed for 50% inhibition of TNFα cytotoxicity, against p55-sf2” value in experiment [2] is approximately 2 fold against p55-sf2.
